Results published in patent publication US20140213531A1 (POLYPHOR, published 2014).
Bridges are numbered along the chain shown (N, C = ends). [ ]: non-standard residue; d: D form. Gly(octyl) = CCCCCCCC[C@H](N)C(=O)O; Pro(4NHCOPhe) = not defined here; Cha = N[C@@H](CC1CCCCC1)C(=O)O

T1: Chymase, from human skin (human, UniProt P23946 22-247)
T1 construct: purified natural enzyme, bought
T1 sequence (looked up): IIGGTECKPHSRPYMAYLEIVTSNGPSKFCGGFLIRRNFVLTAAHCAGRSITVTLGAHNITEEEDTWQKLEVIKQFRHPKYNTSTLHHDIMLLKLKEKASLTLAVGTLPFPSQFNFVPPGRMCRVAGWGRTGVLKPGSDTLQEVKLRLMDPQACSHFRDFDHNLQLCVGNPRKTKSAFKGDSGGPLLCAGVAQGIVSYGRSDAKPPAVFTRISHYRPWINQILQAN

T2: CathepsinG, from human neutrophils (human, UniProt P08311 21-244)
T2 construct: purified natural enzyme, bought
T2 sequence (looked up): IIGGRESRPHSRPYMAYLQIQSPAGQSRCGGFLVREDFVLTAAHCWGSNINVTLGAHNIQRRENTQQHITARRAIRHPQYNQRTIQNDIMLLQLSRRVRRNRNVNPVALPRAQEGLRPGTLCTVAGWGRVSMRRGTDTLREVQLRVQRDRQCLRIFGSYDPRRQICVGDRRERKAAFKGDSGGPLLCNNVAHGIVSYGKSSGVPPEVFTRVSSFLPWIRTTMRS


Experiments:
Assay in all cases: enzyme inhibition, pNA substrate
Chymase, from human skin = target: T1, Chymase, from human skin
[1] = target: T3, Trypsin, Iodination grade, from human pancreas (human, UniProt P07477 24-247)
T3 construct: purified natural enzyme, bought

[2] = target: Thrombin, from Human Plasma, high activity (human, UniProt P00734 328-622)
[3] = target: T4, Coagulation Factor Xa, from uman plasma (human, UniProt P00742 41-179; P00742 235-488, limits assumed)
T4 construct: purified natural enzyme, bought; also called FXa
T4 sequence (P00742 41-179 limits assumed, chain 1 of 2): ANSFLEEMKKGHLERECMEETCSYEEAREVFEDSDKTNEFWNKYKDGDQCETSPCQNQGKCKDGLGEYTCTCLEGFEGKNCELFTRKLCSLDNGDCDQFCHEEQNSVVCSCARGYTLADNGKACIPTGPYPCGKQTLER
T4 sequence (P00742 235-488 limits assumed, chain 2 of 2): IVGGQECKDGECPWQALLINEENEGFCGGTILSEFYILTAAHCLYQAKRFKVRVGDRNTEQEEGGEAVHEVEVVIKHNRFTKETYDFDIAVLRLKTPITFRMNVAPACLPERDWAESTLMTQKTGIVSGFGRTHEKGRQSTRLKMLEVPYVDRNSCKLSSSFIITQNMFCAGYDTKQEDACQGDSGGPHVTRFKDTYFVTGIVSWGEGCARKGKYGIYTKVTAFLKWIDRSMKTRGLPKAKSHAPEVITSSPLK

[4] = target: T5, Chymotrypsin, from human pancreas (human, UniProt P17538 19-263)
T5 construct: purified natural enzyme, bought
T5 sequence (P17538 19-263): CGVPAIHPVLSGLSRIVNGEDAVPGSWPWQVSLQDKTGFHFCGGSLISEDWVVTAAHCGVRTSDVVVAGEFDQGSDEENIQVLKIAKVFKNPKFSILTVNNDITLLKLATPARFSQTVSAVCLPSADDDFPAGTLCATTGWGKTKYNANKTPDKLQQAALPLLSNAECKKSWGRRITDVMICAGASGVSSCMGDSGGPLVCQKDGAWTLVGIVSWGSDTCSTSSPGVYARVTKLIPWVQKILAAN

[5] = target: T6, Tryptase, from human lung (human, UniProt Q15661 31-275, limits assumed)
T6 construct: purified natural enzyme, bought
T6 sequence (Q15661 31-275 limits assumed): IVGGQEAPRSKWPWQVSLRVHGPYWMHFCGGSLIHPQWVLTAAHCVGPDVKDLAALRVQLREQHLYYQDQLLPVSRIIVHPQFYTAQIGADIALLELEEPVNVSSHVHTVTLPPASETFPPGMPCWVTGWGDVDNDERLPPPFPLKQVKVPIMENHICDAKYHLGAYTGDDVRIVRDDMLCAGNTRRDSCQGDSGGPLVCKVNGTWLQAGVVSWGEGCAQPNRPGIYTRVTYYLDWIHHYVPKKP

[6] = target: T2, CathepsinG, from human neutrophils
[7] = target: T7, Urokinase from human urine (human, UniProt P00749 21-431, limits assumed)
T7 construct: purified natural enzyme, bought

Binder	% inhibition at 100 µM (Chymase, from human skin) [%]	% inhibition at 100 µM [1] [%]	% inhibition at 100 µM [2] [%]	% inhibition at 100 µM [3] [%]	% inhibition at 100 µM [4] [%]	% inhibition at 100 µM [5] [%]	% inhibition at 100 µM [6] [%]	% inhibition at 100 µM [7] [%]
XCTASIPPQCQ (HELM PEPTIDE1{[O=C([C@H](CCc1ccccc1)N[*:1])[*:2]].C.T.A.S.I.P.P.Q.C.Q.[dP].P}$PEPTIDE1,PEPTIDE1,2:R3-10:R3|PEPTIDE1,PEPTIDE1,1:R1-13:R2$$$V2.0; SMILES CC[C@H](C)[C@@H]1NC(=O)[C@H](CO)NC(=O)[C@H](C)NC(=O)[C@H]([C@@H](C)O)NC(=O)[C@@H]2CSSC[C@H](NC(=O)[C@H](CCC(N)=O)NC(=O)[C@@H]3CCCN3C(=O)[C@@H]3CCCN3C1=O)C(=O)N[C@@H](CCC(N)=O)C(=O)N1CCC[C@@H]1C(=O)N1CCC[C@H]1C(=O)N[C@@H](CCc1ccccc1)C(=O)N2, also called Ex. 143) [Example 143]	0	12	12	0	91	18	28	–
XCTASXPPQCF (HELM PEPTIDE1{[O=C([C@H](CCc1ccccc1)N[*:1])[*:2]].C.T.A.S.[Cha].P.P.Q.C.F.[dP].P}$PEPTIDE1,PEPTIDE1,2:R3-10:R3|PEPTIDE1,PEPTIDE1,1:R1-13:R2$$$V2.0; SMILES C[C@@H]1NC(=O)[C@H]([C@@H](C)O)NC(=O)[C@@H]2CSSC[C@H](NC(=O)[C@H](CCC(N)=O)NC(=O)[C@@H]3CCCN3C(=O)[C@@H]3CCCN3C(=O)[C@H](CC3CCCCC3)NC(=O)[C@H](CO)NC1=O)C(=O)N[C@@H](Cc1ccccc1)C(=O)N1CCC[C@@H]1C(=O)N1CCC[C@H]1C(=O)N[C@@H](CCc1ccccc1)C(=O)N2, also called Ex. 155) [Example 155]	–	18	19	–	83	30	52	12
cyclo([Gly(octyl)]CTAS[Cha]P[Pro(4NHCOPhe)]QCQ[dP]P) (disulfide 2-10; not fully specified; reading uncertain, also called Ex. 160) [Example 160]	–	–	23	–	94	30	55	14
XCTASXPPQCQ (HELM PEPTIDE1{[CCCCCCCC[C@H](N[*:1])C(=O)[*:2]].C.T.A.S.[CCCCCCCC[C@H](N[*:1])C(=O)[*:2]].P.P.Q.C.Q.[dP].P}$PEPTIDE1,PEPTIDE1,2:R3-10:R3|PEPTIDE1,PEPTIDE1,1:R1-13:R2$$$V2.0; SMILES CCCCCCCC[C@@H]1NC(=O)[C@@H]2CCCN2C(=O)[C@H]2CCCN2C(=O)[C@H](CCC(N)=O)NC(=O)[C@@H]2CSSC[C@H](NC1=O)C(=O)N[C@@H]([C@@H](C)O)C(=O)N[C@@H](C)C(=O)N[C@@H](CO)C(=O)N[C@@H](CCCCCCCC)C(=O)N1CCC[C@H]1C(=O)N1CCC[C@H]1C(=O)N[C@@H](CCC(N)=O)C(=O)N2, also called Ex. 148) [Example 148]	–	–	32	–	91	30	52	12
XCTASXPPQCY (HELM PEPTIDE1{[Nle].C.T.A.S.[Cha].P.P.Q.C.Y.[dP].P}$PEPTIDE1,PEPTIDE1,2:R3-10:R3|PEPTIDE1,PEPTIDE1,1:R1-13:R2$$$V2.0; SMILES CCCC[C@@H]1NC(=O)[C@@H]2CCCN2C(=O)[C@H]2CCCN2C(=O)[C@H](Cc2ccc(O)cc2)NC(=O)[C@@H]2CSSC[C@H](NC1=O)C(=O)N[C@@H]([C@@H](C)O)C(=O)N[C@@H](C)C(=O)N[C@@H](CO)C(=O)N[C@@H](CC1CCCCC1)C(=O)N1CCC[C@H]1C(=O)N1CCC[C@H]1C(=O)N[C@@H](CCC(N)=O)C(=O)N2, also called Ex. 141) [Example 141]	0	0	0	15.3	72.9	44.5	63.4	–
XETASIPPQKY (HELM PEPTIDE1{[Nle].E.T.A.S.I.P.P.Q.K.Y.[dP].P}$PEPTIDE1,PEPTIDE1,1:R1-13:R2$$$V2.0; SMILES CCCC[C@@H]1NC(=O)[C@@H]2CCCN2C(=O)[C@H]2CCCN2C(=O)[C@H](Cc2ccc(O)cc2)NC(=O)[C@H](CCCCN)NC(=O)[C@H](CCC(N)=O)NC(=O)[C@@H]2CCCN2C(=O)[C@@H]2CCCN2C(=O)[C@H]([C@@H](C)CC)NC(=O)[C@H](CO)NC(=O)[C@H](C)NC(=O)[C@H]([C@@H](C)O)NC(=O)[C@H](CCC(=O)O)NC1=O) [Example 104]	0	0	–	–	–	0	53.5	0
XQTASIPPQTY (HELM PEPTIDE1{[Nle].Q.T.A.S.I.P.P.Q.T.Y.[dP].P}$PEPTIDE1,PEPTIDE1,1:R1-13:R2$$$V2.0; SMILES CCCC[C@@H]1NC(=O)[C@@H]2CCCN2C(=O)[C@H]2CCCN2C(=O)[C@H](Cc2ccc(O)cc2)NC(=O)[C@H]([C@@H](C)O)NC(=O)[C@H](CCC(N)=O)NC(=O)[C@@H]2CCCN2C(=O)[C@@H]2CCCN2C(=O)[C@H]([C@@H](C)CC)NC(=O)[C@H](CO)NC(=O)[C@H](C)NC(=O)[C@H]([C@@H](C)O)NC(=O)[C@H](CCC(N)=O)NC1=O, also called Ex. 109) [Example 109]	–	0	0	–	13.8	–	54.1	–
XCTASIPPQCY (HELM PEPTIDE1{[Nle].C.T.A.S.I.P.P.Q.C.Y.[dK].E}$PEPTIDE1,PEPTIDE1,2:R3-10:R3|PEPTIDE1,PEPTIDE1,1:R1-13:R2$$$V2.0; SMILES CCCC[C@@H]1NC(=O)[C@H](CCC(=O)O)NC(=O)[C@@H](CCCCN)NC(=O)[C@H](Cc2ccc(O)cc2)NC(=O)[C@@H]2CSSC[C@H](NC1=O)C(=O)N[C@@H]([C@@H](C)O)C(=O)N[C@@H](C)C(=O)N[C@@H](CO)C(=O)N[C@@H]([C@@H](C)CC)C(=O)N1CCC[C@H]1C(=O)N1CCC[C@H]1C(=O)N[C@@H](CCC(N)=O)C(=O)N2) [Example 127]	–	0	–	13.3	47.2	0	64	–
XCTASXPPQCQ (HELM PEPTIDE1{[O=C([C@H](CCc1ccccc1)N[*:1])[*:2]].C.T.A.S.[Cha].P.P.Q.C.Q.[dP].P}$PEPTIDE1,PEPTIDE1,2:R3-10:R3|PEPTIDE1,PEPTIDE1,1:R1-13:R2$$$V2.0; SMILES C[C@@H]1NC(=O)[C@H]([C@@H](C)O)NC(=O)[C@@H]2CSSC[C@H](NC(=O)[C@H](CCC(N)=O)NC(=O)[C@@H]3CCCN3C(=O)[C@@H]3CCCN3C(=O)[C@H](CC3CCCCC3)NC(=O)[C@H](CO)NC1=O)C(=O)N[C@@H](CCC(N)=O)C(=O)N1CCC[C@@H]1C(=O)N1CCC[C@H]1C(=O)N[C@@H](CCc1ccccc1)C(=O)N2) [Example 158]	0	–	–	–	93	13	55	10
XCTASIPPQCY (HELM PEPTIDE1{[CCCCCCCC[C@H](N[*:1])C(=O)[*:2]].C.T.A.S.I.P.P.Q.C.Y.[dP].Q}$PEPTIDE1,PEPTIDE1,2:R3-10:R3|PEPTIDE1,PEPTIDE1,1:R1-13:R2$$$V2.0; SMILES CCCCCCCC[C@@H]1NC(=O)[C@H](CCC(N)=O)NC(=O)[C@H]2CCCN2C(=O)[C@H](Cc2ccc(O)cc2)NC(=O)[C@@H]2CSSC[C@H](NC1=O)C(=O)N[C@@H]([C@@H](C)O)C(=O)N[C@@H](C)C(=O)N[C@@H](CO)C(=O)N[C@@H]([C@@H](C)CC)C(=O)N1CCC[C@H]1C(=O)N1CCC[C@H]1C(=O)N[C@@H](CCC(N)=O)C(=O)N2, also called Ex. 177) [Example 177]	–	–	17	–	86	15	54	12
